From doi:10.1101/634550

B1: BCCP2 AW box2 (-143/-115) (dsDNA)
DNA 1: CCTACTTCCTCGGTTTCATCGTCCACTG
DNA 2: CAGTGGACGATGAAACCGAGGAAGTAGG
B2: BCCP1 AW box (-67/-40) (dsDNA)
DNA 1: TTGTGCTCTTTGGTTTCATCGAGAGAGA
DNA 2: TCTCTCTCGATGAAACCAAAGAGCACAA
B3: Neg.C (dsDNA)
DNA 1: TGTTACAATCTAGTTACTATTCAGGGTA
DNA 2: TACCCTGAATAGTAACTAGATTGTAACA
B4: BADC3m3 (dsDNA)
DNA 1: GTTGTGTCCTCGTTTACATCGTTATCGT
DNA 2: ACGATAACGATGTAAACGAGGACACAAC
B5: BADC3 AW box (-94/-67) (dsDNA)
DNA 1: GTTGTGTCCTCGTTCATATCGTTATCGT
DNA 2: ACGATAACGATATGAACGAGGACACAAC
B6: BADC1 AW box (-169/-142) (dsDNA)
DNA 1: CCTTCTTCTTTGGTAACTCCGTCCGCCG
DNA 2: CGGCGGACGGAGTTACCAAAGAAGAAGG
B7: BADC2m3 (dsDNA)
DNA 1: TCGTCTTCCTCGTTCACATCGTTCACTC
DNA 2: GAGTGAACGATGTGAACGAGGAAGACGA
B8: BADC1m3 (dsDNA)
DNA 1: CCTTCTTCTTTGGTGCCTCCGTCCGCCG
DNA 2: CGGCGGACGGAGGCACCAAAGAAGAAGG
B9: BCCP2 AW box1 (-36/-8) (dsDNA)
DNA 1: TGGGTTTCTTCGTAAGCATCGAAATCAG
DNA 2: CTGATTTCGATGCTTACGAAGAAACCCA
B10: BADC2 AW box (-102/-75) (dsDNA)
DNA 1: TCGTCTTCCTCGTTCGTATCGTTCACTC
DNA 2: GAGTGAACGATACGAACGAGGAAGACGA

These binders were tested against GFP-WRI1(58-240), WRINKLED1 DNA-binding domain (UniProt Q6X5Y6 58-240) (assay: MST).
GFP-WRI1(58-240), WRINKLED1 DNA-binding domain, sequence (Q6X5Y6 58-240): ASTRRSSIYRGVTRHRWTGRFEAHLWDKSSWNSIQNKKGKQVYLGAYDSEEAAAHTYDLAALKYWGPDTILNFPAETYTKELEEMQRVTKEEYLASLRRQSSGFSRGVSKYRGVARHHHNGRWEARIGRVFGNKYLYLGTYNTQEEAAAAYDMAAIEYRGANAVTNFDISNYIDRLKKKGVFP

Binder | Kd [nM] | binding result
B1 | 6.68 ± 0.94 | –
B2 | 23.9 ± 4.42 | –
B3 | – | no binding
B4 | 22.9 ± 2.94 | –
B5 | 5.24 ± 2.59 | –
B6 | 0.27 ± 0.27 | –
B7 | 149 ± 139 | –
B8 | 70.7 ± 27.8 | –
B9 | 0.65 ± 0.39 | –
B10 | 2.73 ± 0.72 | –
